# T1: human PVRIG on cells (human, UniProt Q6DKI7 1-326)
# T1 construct: whole, on cells; over-expressed on HEK cells or endogenous on Jurkat and CD8 T cells; also called hPVRIG; HEK hPVRIG cells
# T1 sequence (looked up): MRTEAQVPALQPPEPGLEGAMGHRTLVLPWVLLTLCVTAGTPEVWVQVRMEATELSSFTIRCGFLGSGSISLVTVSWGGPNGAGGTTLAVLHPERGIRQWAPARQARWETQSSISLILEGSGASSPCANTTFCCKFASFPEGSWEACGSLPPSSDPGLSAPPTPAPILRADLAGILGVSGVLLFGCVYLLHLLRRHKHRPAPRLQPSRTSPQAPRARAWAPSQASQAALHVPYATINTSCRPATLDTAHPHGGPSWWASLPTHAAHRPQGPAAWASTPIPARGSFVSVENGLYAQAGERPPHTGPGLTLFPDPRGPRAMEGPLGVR
# T2: cynomolgus PVRIG on cells (cynomolgus, UniProt A0A2K5WVV8 41-322)
# T2 construct: whole, on cells; also called cPVRIG; expi cPVRIG cells
# T2 sequence: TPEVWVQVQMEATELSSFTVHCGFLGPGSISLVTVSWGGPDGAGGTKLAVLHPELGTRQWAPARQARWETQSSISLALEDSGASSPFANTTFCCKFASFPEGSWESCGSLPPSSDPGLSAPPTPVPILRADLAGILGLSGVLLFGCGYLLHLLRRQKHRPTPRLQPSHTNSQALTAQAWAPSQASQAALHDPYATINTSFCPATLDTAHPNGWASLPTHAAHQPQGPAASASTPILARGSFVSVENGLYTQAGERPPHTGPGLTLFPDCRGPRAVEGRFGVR
# T3: PVRIG (FACS-based competition assay of FIGS. 7 and 15) (Homo sapiens, UniProt Q6DKI7)
# T3 construct: made because the format of the assay is only described in U.S. Ser. No. 15/048,967; also called human PVRIG
# T3 sequence (receptor, looked up): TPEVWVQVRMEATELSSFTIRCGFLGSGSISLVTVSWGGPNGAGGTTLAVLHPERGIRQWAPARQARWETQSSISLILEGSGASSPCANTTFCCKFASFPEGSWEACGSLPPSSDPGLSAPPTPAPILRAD
# B1: CHA.7.508 (antibody, V domains shown)
# VH: EVQLQQSGPDLVKPGASMKISCKASGYTFIDYNIHWVKQSQGKSLDWIGYIYPYNGGTGYNQKFKNKATLTVDSSSSTAYMEVRSLTFEDSAVYFCAREADYYGNRGQFDYWGQGTLVTVSA
# VL: DIQMTQSPASLSVSVGETVTITCRASENIFSNLAWYQQKQGKSPQLLVYGEANLADGVPSRFSGSGSGTQYSLKINSLQSEDFGNYYCQHFWGTPYTFGGGTTLEIK
# B2: CHA.7.510 (antibody, V domains shown)
# VH: QVTLKESGPGILQPSQTLSLTCSFSGFSLNTSGTGVGWIRQPSGKGLEWLTHIWWNDNKFYNTFLKSRLTISKETSNNQVFLKIASVDTADAATYYCARMAYGNLWFVNWGQGTLVAVST
# VL: DIVLTQSPASLAVSLGQRASISCRASRSVTISGYSYMYWYQQKPGQPPRLLFYLASNLASGVPARFSGSGSGTDFTLNIHPVEEEDAAIYYCQHSRELPYTFGGGTKLEIK
# B3: CHA.7.514 (antibody, V domains shown)
# VH: EVQLRQSGADLVKPGASVKLSCTASGFNIKDTYIDWVKQRPEQGLDWIGRIDPANGNTKYDPKFQGKATIITDTSSNTAYLQLSNLTSEDTAVYYCARYGSYPYFDYWGRGTTLAVSS
# VL: SIVMTQTPKFLLISAGDRVTITCKASQSVRNDVAWYQQKPGQSPKLLMYYASNRYTGVPDRFTGSGYGTDFTFTISTVQAEDLAVYFCQQDYSSPPTFGGGTKLEIK
# B4: CHA.7.512 (antibody, V domains shown)
# VH: QIQLVQSGPELKKPRETVKISCKASGYTFTDYSMHWVKQAPGKGLKWMGWINTETGEPTYADDFKGRFAFSLEASASSAYLQINILKDEDTATYFCARSRGGYYEDYYALDYWGQGTSVTVSS
# VL: DIQMTQSPASLSASVGESVTITCRASGNIHYYLAWYQQKQGKSPQLLVYNAKNLADGVPSRFSGSGSGTQFSLKINSLQPEDFGSYYCQHFWISPPTFGGGTKLEIK
# B5: CHA.7.522 (antibody, V domains shown)
# VH: QVQLQQPGSELVRPGTSVKLSCKASGYTFTSYWVHWVRQRHGQGLEWIGNVYPGSGSTNYDEKFKSKGTLTVDTSSSTAYMHLSSLTSEDSAVYYCTRGVLRFPLDYWGQGTTLTVSS
# VL: DIVMTQAAPSVPVTPGESVSISCRSSKSLLHSNGNTYLYWFLQRPGQSPHLLIYRMSNLASGVPDRFSGSGSGTAFTLRISRVEAEDVGVYYCMQHLEYPLTFGAGTKLELK
# B6: CHA.7.544 (antibody, V domains shown)
# VH: QVQLKESGPGLVAPSQSLSITCTVSGFSLTSYAITWVRQPPGKGLEWLGVIWPGGGTNYNSALKSRLSISKDNSKSHLFLKMNSLQTDDTARYYCVRSYDGYLDWYFDVWGTGTTVTVSS
# VL: NIVMTQSPKSMSMSVGERVTLSCKASENVGTYVSWYQQKPDQSPKLLIYGASNRYTGVPDRFTGSGSATDFTLIISSVQAEDLSDYHCGQSYSYPYTFGGGTKLEII
# Biological target: T1, human PVRIG on cells
# Assay: FACS, HEK hPVRIG cells (HEK OE)
row,Binder,EC50
1,B1,3.3 nM
2,B2,92.8 nM
3,B3,5.31 nM
4,B4,53 nM
5,B5,91.4 nM

# Biological target: T1, human PVRIG on cells
# Assay: FACS, HEK hPVRIG cells (HEK OE)
# Remark: another data set of the same source
row,Binder,EC50
1,B6,0.76 nM

# Biological target: T1, human PVRIG on cells
# Assay: FACS, human PBMC, CD8+ T cells, 10ug/ml
row,Binder,gMFIr Human CD8+ T cells
1,B1,4.09
2,B2,2.73
3,B3,5.15
4,B4,1.15
5,B5,1.9

# Biological target: T1, human PVRIG on cells
# Assay: FACS, human PBMC, CD8+ T cells, 10ug/ml
# Remark: another data set of the same source
row,Binder,gMFIr Human CD8+ T cells
1,B6,2.54

# Biological target: T1, human PVRIG on cells
# Assay: FACS, human PBMC, CD8+ T cells, 10ug/ml
# Remark: another data set of the same source
row,Binder,gMFIr Human CD8+ T cells
1,B6,2.54
2,B1,4.09
3,B2,2.73
4,B3,5.15
5,B4,1.15
6,B5,1.9

# Biological target: T1, human PVRIG on cells
# Assay: FACS, human PBMC, CD56 int. NK cells, 10ug/ml
row,Binder,gMFIr Human CD56 int. NK
1,B1,3.6
2,B2,3.13
3,B3,4.16
4,B4,1.3
5,B5,2.06

# Biological target: T1, human PVRIG on cells
# Assay: FACS, human PBMC, CD56 int. NK cells, 10ug/ml
# Remark: another data set of the same source
row,Binder,gMFIr Human CD56 int. NK
1,B6,2.36

# Biological target: T1, human PVRIG on cells
# Assay: FACS, human PBMC, CD56 int. NK cells, 10ug/ml
# Remark: another data set of the same source
row,Binder,gMFIr Human CD56 int. NK
1,B6,2.36
2,B1,3.6
3,B2,3.13
4,B3,4.16
5,B4,1.3
6,B5,2.06

# Biological target: T1, human PVRIG on cells
# Assay: FACS, Jurkat cells, relative to control, 3.3ug/ml
row,Binder,gMFIr Jurkat
1,B1,6.5
2,B2,4.19
3,B3,7.67
4,B4,1.47
5,B5,2.99

# Biological target: T1, human PVRIG on cells
# Assay: FACS, Jurkat cells, relative to control, 3.3ug/ml
# Remark: another data set of the same source
row,Binder,gMFIr Jurkat
1,B6,5.68

# Biological target: T1, human PVRIG on cells
# Assay: FACS, HEK hPVRIG over HEK parental cells, 3.3ug/ml
row,Binder,gMFIr HEK OE/par
1,B1,45.9
2,B2,16.3
3,B3,49.8
4,B4,5.12
5,B5,10.1

# Biological target: T1, human PVRIG on cells
# Assay: FACS, HEK hPVRIG over HEK parental cells, 3.3ug/ml
# Remark: another data set of the same source
row,Binder,gMFIr HEK OE/par
1,B6,42.6

# Biological target: T2, cynomolgus PVRIG on cells
# Assay: FACS, expi cPVRIG over expi parental cells, 3.3ug/ml
row,Binder,gMFIr Expi cyno OE/par
1,B1,41.5
2,B2,38.2
3,B3,65.2
4,B4,8.96
5,B5,27.2

# Biological target: T2, cynomolgus PVRIG on cells
# Assay: as above
# Remark: another data set of the same source
row,Binder,gMFIr Expi cyno OE/par
1,B6,61.1

# Biological target: T2, cynomolgus PVRIG on cells
# Assay: as above
# Remark: another data set of the same source
row,Binder,gMFIr Expi cyno OE/par
1,B6,61.1
2,B1,41.5
3,B2,38.2
4,B3,65.2
5,B4,8.96
6,B5,27.2

# Biological target: T3, PVRIG (FACS-based competition assay of …)
# Assay: FACS-based competition assay of PVRIG blocking; format and competitor not given
row,Binder,IC50
1,B1,37.9 nM
2,B2,55 nM
3,B3,38.9 nM
4,B4,840 nM
5,B5,50.5 nM

# Biological target: T3, PVRIG (FACS-based competition assay of …)
# Assay: as above
# Remark: another data set of the same source
row,Binder,IC50
1,B1,37.9 nM
2,B2,55 nM
3,B3,38.9 nM
4,B4,840 nM
5,B5,50.5 nM
